Test results taken from paper doi:10.1101/2023.12.15.570541.

Biological target: MFSD1-strep (mouse Major Facilitator Superfamily Domain Containing 1 with N-terminal Twin-Streptavidin-tag) (mouse) (UniProt Q9DC37)
Test: nanoDSF

Chain of UniProt Q9DC37 (Q9DC37 whole entry, the tested form may be a part): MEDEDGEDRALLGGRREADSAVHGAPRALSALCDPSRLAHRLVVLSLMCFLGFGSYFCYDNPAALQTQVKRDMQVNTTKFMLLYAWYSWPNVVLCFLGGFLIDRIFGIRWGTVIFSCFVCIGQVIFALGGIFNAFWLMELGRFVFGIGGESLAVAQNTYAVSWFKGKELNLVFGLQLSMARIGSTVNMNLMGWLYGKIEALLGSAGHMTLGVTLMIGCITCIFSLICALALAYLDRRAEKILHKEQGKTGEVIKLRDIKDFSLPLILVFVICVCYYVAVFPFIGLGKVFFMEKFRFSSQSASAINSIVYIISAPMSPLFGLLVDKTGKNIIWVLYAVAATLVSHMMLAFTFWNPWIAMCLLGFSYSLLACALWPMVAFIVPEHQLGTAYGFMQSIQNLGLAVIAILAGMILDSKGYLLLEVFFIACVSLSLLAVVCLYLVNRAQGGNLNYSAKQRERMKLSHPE

Row | Substance | Kd [mM] | ΔTm [°C]
1 | His-Ala (peptide) | 6.7 | 
2 | His-Lys (peptide) | 0.765 | 12
3 | Leu-Ala (peptide) | 2.2 | 
4 | Leu-Leu (peptide) |  | 14
5 | Lys-Val (peptide) | 4.3 | 
6 | Pro-Arg (peptide) | 0.318 | 12.1
